Experimental data published in US20200024360A1 (Janssen / Centocor, published 2020).

Molecular target: T1, human PSMA (prostate specific membrane antigen), full length (human, UniProt Q04609 1-750)
T1 construct: On LNCaP or C4-2B cells (endogenous) or transduced HEK293F cells; also called FOLH1_HUMAN; hPSMA
Test: flow cytometry cell binding assay, bispecific antibody titrated on LNCaP cells (human PSMA)
Experimental: PSMA×CD3 bispecific antibodies were tested for binding to PSMA positive cell lines LNCAP, human PSMA-HEK, Chimpanzee-PSMA-HEK and Cynomolgous monkey PSMA-HEK. To assess the binding capabilities of the PSMA bispecific antibodies, the cell-binding assay was utilized (described previously). Briefly, PSMA expressing tumor cells are bound by bispecific antibodies at known concentrations and the bound antibody is detected by an anti-human kappa light chain PE conjugated detection reagent (Invitrogen). The Mean Fluorescents Intensity (MFI) is the measure of bound bispecific antibody. The MFI is converted to a relative EC₅₀. EC₅₀ is a commonly used dose-response curve, where the half maximal effective concentration or the EC₅₀ point is defined as the inflection point of the curve. EC₅₀ s were determined by measuring cell bound bispecific and known concentrations. […] The dose response curves were then diluted down to that of background or no bispecific binding. The inflection point of this curve reflects the EC₅₀ point. The calculated EC₅₀ is determined by taking the ug/ml amount of bispecific antibody at the EC₅₀ point and converting it to a molarity value based on the MW of the bispecific antibody. Bispecific antibodies were normalized for protein concentration and then incubated with the same number of cells expressing either human or cyno PSMA. The MFI at each concentration was collected by flow cytometry and plotted as a function of concentration. Data was transformed via log 10 and then plotted. Nonlinear regression of binding curves was done to determine EC₅₀ s. These relative values were used for ranking PSMA binding to target cells.
PSMA×CD3 bispecific antibodies were tested for binding to PSMA positive cell line, LNCAP, to PSMA negative cell line, PC3. To assess the binding capabilities of the PSMA bispecific antibodies, the cell-binding assay was utilized (described previously). Bispecific antibodies were normalized for protein concentration and then incubated with the same number of cells expressing either human or cyno PSMA. The MFI at each concentration was collected by flow cytometry and plotted as a function of concentration.

T1 sequence (Q04609 whole entry): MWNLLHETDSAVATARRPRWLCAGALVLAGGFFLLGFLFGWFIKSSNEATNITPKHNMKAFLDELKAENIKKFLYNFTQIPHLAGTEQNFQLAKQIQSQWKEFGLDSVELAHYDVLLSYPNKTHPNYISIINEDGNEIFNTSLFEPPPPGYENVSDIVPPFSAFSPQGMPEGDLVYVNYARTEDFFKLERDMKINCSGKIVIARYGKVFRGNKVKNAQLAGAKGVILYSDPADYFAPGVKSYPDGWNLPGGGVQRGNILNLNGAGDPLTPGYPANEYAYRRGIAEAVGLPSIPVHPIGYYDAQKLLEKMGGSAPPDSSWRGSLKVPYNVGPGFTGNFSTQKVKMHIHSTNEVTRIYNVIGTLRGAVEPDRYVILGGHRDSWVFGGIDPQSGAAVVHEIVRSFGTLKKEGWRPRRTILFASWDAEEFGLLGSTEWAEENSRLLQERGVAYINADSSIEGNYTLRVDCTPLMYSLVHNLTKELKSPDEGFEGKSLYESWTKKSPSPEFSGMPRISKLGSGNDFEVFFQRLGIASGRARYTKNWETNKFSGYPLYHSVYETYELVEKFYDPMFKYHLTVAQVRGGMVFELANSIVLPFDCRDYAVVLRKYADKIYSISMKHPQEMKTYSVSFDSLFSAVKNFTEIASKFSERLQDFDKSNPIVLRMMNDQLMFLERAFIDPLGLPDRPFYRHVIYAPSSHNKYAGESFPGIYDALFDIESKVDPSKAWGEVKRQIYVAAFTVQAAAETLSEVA

Binder | binding result
PS3B60 (bispecific antibody, human IgG4 S228P, kappa, lambda, F234A L235A, IgG4 PAA; PSMA arm first, then CD3 arm (F405L, R409K); also called PSMB344 x CD3B219) heavy 1: not shown light 1: not shown heavy 2: EVQLVESGGGLVQPGGSLRLSCAASGFTFNTYAMNWVRQAPGKGLEWVARIRSKYNNYATYYAASVKGRFTISRDDSKNSLYLQMNSLKTEDTAVYYCARHGNFGNSYVSWFAYWGQGTLVTVSSASTKGPSVFPLAPCSRSTSESTAALGCLVKDYFPEPVTVSWNSGALTSGVHTFPAVLQSSGLYSLSSVVTVPSSSLGTKTYTCNVDHKPSNTKVDKRVESKYGPPCPPCPAPEAAGGPSVFLFPPKPKDTLMISRTPEVTCVVVDVSQEDPEVQFNWYVDGVEVHNAKTKPREEQFNSTYRVVSVLTVLHQDWLNGKEYKCKVSNKGLPSSIEKTISKAKGQPREPQVYTLPPSQEEMTKNQVSLTCLVKGFYPSDIAVEWESNGQPENNYKTTPPVLDSDGSFLLYSKLTVDKSRWQEGNVFSCSVMHEALHNHYTQKSLSLSLGK light 2: QTVVTQEPSLTVSPGGTVTLTCRSSTGAVTTSNYANWVQQKPGQAPRGLIGGTNKRAPGTPARFSGSLLGGKAALTLSGVQPEDEAEYYCALWYSNLWVFGGGTKLTVLGQPKAAPSVTLFPPSSEELQANKATLVCLISDFYPGAVTVAWKADSSPVKAGVETTTPSKQSNNKYAASSYLSLTPEQWKSHRSYSCQVTHEGSTVEKTVAPTECS | binds
PS3B62 (bispecific antibody, human IgG4 S228P, kappa, lambda, F234A L235A, IgG4 PAA; PSMA arm first, then CD3 arm (F405L, R409K); also called PSMB346 x CD3B219) heavy 1: not shown light 1: not shown heavy 2: EVQLVESGGGLVQPGGSLRLSCAASGFTFNTYAMNWVRQAPGKGLEWVARIRSKYNNYATYYAASVKGRFTISRDDSKNSLYLQMNSLKTEDTAVYYCARHGNFGNSYVSWFAYWGQGTLVTVSSASTKGPSVFPLAPCSRSTSESTAALGCLVKDYFPEPVTVSWNSGALTSGVHTFPAVLQSSGLYSLSSVVTVPSSSLGTKTYTCNVDHKPSNTKVDKRVESKYGPPCPPCPAPEAAGGPSVFLFPPKPKDTLMISRTPEVTCVVVDVSQEDPEVQFNWYVDGVEVHNAKTKPREEQFNSTYRVVSVLTVLHQDWLNGKEYKCKVSNKGLPSSIEKTISKAKGQPREPQVYTLPPSQEEMTKNQVSLTCLVKGFYPSDIAVEWESNGQPENNYKTTPPVLDSDGSFLLYSKLTVDKSRWQEGNVFSCSVMHEALHNHYTQKSLSLSLGK light 2: QTVVTQEPSLTVSPGGTVTLTCRSSTGAVTTSNYANWVQQKPGQAPRGLIGGTNKRAPGTPARFSGSLLGGKAALTLSGVQPEDEAEYYCALWYSNLWVFGGGTKLTVLGQPKAAPSVTLFPPSSEELQANKATLVCLISDFYPGAVTVAWKADSSPVKAGVETTTPSKQSNNKYAASSYLSLTPEQWKSHRSYSCQVTHEGSTVEKTVAPTECS | binds
PS3B70 (bispecific antibody, human IgG4 S228P, kappa, lambda, F234A L235A, IgG4 PAA; PSMA arm first, then CD3 arm (F405L, R409K); also called PSMB358 x CD3B219) heavy 1: not shown light 1: not shown heavy 2: EVQLVESGGGLVQPGGSLRLSCAASGFTFNTYAMNWVRQAPGKGLEWVARIRSKYNNYATYYAASVKGRFTISRDDSKNSLYLQMNSLKTEDTAVYYCARHGNFGNSYVSWFAYWGQGTLVTVSSASTKGPSVFPLAPCSRSTSESTAALGCLVKDYFPEPVTVSWNSGALTSGVHTFPAVLQSSGLYSLSSVVTVPSSSLGTKTYTCNVDHKPSNTKVDKRVESKYGPPCPPCPAPEAAGGPSVFLFPPKPKDTLMISRTPEVTCVVVDVSQEDPEVQFNWYVDGVEVHNAKTKPREEQFNSTYRVVSVLTVLHQDWLNGKEYKCKVSNKGLPSSIEKTISKAKGQPREPQVYTLPPSQEEMTKNQVSLTCLVKGFYPSDIAVEWESNGQPENNYKTTPPVLDSDGSFLLYSKLTVDKSRWQEGNVFSCSVMHEALHNHYTQKSLSLSLGK light 2: QTVVTQEPSLTVSPGGTVTLTCRSSTGAVTTSNYANWVQQKPGQAPRGLIGGTNKRAPGTPARFSGSLLGGKAALTLSGVQPEDEAEYYCALWYSNLWVFGGGTKLTVLGQPKAAPSVTLFPPSSEELQANKATLVCLISDFYPGAVTVAWKADSSPVKAGVETTTPSKQSNNKYAASSYLSLTPEQWKSHRSYSCQVTHEGSTVEKTVAPTECS | binds
PS3B63 (bispecific antibody, human IgG4 S228P, kappa, lambda, F234A L235A, IgG4 PAA; PSMA arm first, then CD3 arm (F405L, R409K); also called PSMB347 x CD3B219) heavy 1: not shown light 1: not shown heavy 2: EVQLVESGGGLVQPGGSLRLSCAASGFTFNTYAMNWVRQAPGKGLEWVARIRSKYNNYATYYAASVKGRFTISRDDSKNSLYLQMNSLKTEDTAVYYCARHGNFGNSYVSWFAYWGQGTLVTVSSASTKGPSVFPLAPCSRSTSESTAALGCLVKDYFPEPVTVSWNSGALTSGVHTFPAVLQSSGLYSLSSVVTVPSSSLGTKTYTCNVDHKPSNTKVDKRVESKYGPPCPPCPAPEAAGGPSVFLFPPKPKDTLMISRTPEVTCVVVDVSQEDPEVQFNWYVDGVEVHNAKTKPREEQFNSTYRVVSVLTVLHQDWLNGKEYKCKVSNKGLPSSIEKTISKAKGQPREPQVYTLPPSQEEMTKNQVSLTCLVKGFYPSDIAVEWESNGQPENNYKTTPPVLDSDGSFLLYSKLTVDKSRWQEGNVFSCSVMHEALHNHYTQKSLSLSLGK light 2: QTVVTQEPSLTVSPGGTVTLTCRSSTGAVTTSNYANWVQQKPGQAPRGLIGGTNKRAPGTPARFSGSLLGGKAALTLSGVQPEDEAEYYCALWYSNLWVFGGGTKLTVLGQPKAAPSVTLFPPSSEELQANKATLVCLISDFYPGAVTVAWKADSSPVKAGVETTTPSKQSNNKYAASSYLSLTPEQWKSHRSYSCQVTHEGSTVEKTVAPTECS | binds
PS3B61 (bispecific antibody, human IgG4 S228P, kappa, lambda, F234A L235A, IgG4 PAA; PSMA arm first, then CD3 arm (F405L, R409K); also called PSMB345 x CD3B219) heavy 1: not shown light 1: not shown heavy 2: EVQLVESGGGLVQPGGSLRLSCAASGFTFNTYAMNWVRQAPGKGLEWVARIRSKYNNYATYYAASVKGRFTISRDDSKNSLYLQMNSLKTEDTAVYYCARHGNFGNSYVSWFAYWGQGTLVTVSSASTKGPSVFPLAPCSRSTSESTAALGCLVKDYFPEPVTVSWNSGALTSGVHTFPAVLQSSGLYSLSSVVTVPSSSLGTKTYTCNVDHKPSNTKVDKRVESKYGPPCPPCPAPEAAGGPSVFLFPPKPKDTLMISRTPEVTCVVVDVSQEDPEVQFNWYVDGVEVHNAKTKPREEQFNSTYRVVSVLTVLHQDWLNGKEYKCKVSNKGLPSSIEKTISKAKGQPREPQVYTLPPSQEEMTKNQVSLTCLVKGFYPSDIAVEWESNGQPENNYKTTPPVLDSDGSFLLYSKLTVDKSRWQEGNVFSCSVMHEALHNHYTQKSLSLSLGK light 2: QTVVTQEPSLTVSPGGTVTLTCRSSTGAVTTSNYANWVQQKPGQAPRGLIGGTNKRAPGTPARFSGSLLGGKAALTLSGVQPEDEAEYYCALWYSNLWVFGGGTKLTVLGQPKAAPSVTLFPPSSEELQANKATLVCLISDFYPGAVTVAWKADSSPVKAGVETTTPSKQSNNKYAASSYLSLTPEQWKSHRSYSCQVTHEGSTVEKTVAPTECS | binds
PS3B71 (bispecific antibody, human IgG4 S228P, kappa, lambda, F234A L235A, IgG4 PAA; PSMA arm first, then CD3 arm (F405L, R409K); also called PSMB359 x CD3B219) heavy 1: not shown light 1: not shown heavy 2: EVQLVESGGGLVQPGGSLRLSCAASGFTFNTYAMNWVRQAPGKGLEWVARIRSKYNNYATYYAASVKGRFTISRDDSKNSLYLQMNSLKTEDTAVYYCARHGNFGNSYVSWFAYWGQGTLVTVSSASTKGPSVFPLAPCSRSTSESTAALGCLVKDYFPEPVTVSWNSGALTSGVHTFPAVLQSSGLYSLSSVVTVPSSSLGTKTYTCNVDHKPSNTKVDKRVESKYGPPCPPCPAPEAAGGPSVFLFPPKPKDTLMISRTPEVTCVVVDVSQEDPEVQFNWYVDGVEVHNAKTKPREEQFNSTYRVVSVLTVLHQDWLNGKEYKCKVSNKGLPSSIEKTISKAKGQPREPQVYTLPPSQEEMTKNQVSLTCLVKGFYPSDIAVEWESNGQPENNYKTTPPVLDSDGSFLLYSKLTVDKSRWQEGNVFSCSVMHEALHNHYTQKSLSLSLGK light 2: QTVVTQEPSLTVSPGGTVTLTCRSSTGAVTTSNYANWVQQKPGQAPRGLIGGTNKRAPGTPARFSGSLLGGKAALTLSGVQPEDEAEYYCALWYSNLWVFGGGTKLTVLGQPKAAPSVTLFPPSSEELQANKATLVCLISDFYPGAVTVAWKADSSPVKAGVETTTPSKQSNNKYAASSYLSLTPEQWKSHRSYSCQVTHEGSTVEKTVAPTECS | binds
PS3B64 (bispecific antibody, human IgG4 S228P, kappa, lambda, F234A L235A, IgG4 PAA; PSMA arm first, then CD3 arm (F405L, R409K); also called PSMB349 x CD3B219) heavy 1: not shown light 1: not shown heavy 2: EVQLVESGGGLVQPGGSLRLSCAASGFTFNTYAMNWVRQAPGKGLEWVARIRSKYNNYATYYAASVKGRFTISRDDSKNSLYLQMNSLKTEDTAVYYCARHGNFGNSYVSWFAYWGQGTLVTVSSASTKGPSVFPLAPCSRSTSESTAALGCLVKDYFPEPVTVSWNSGALTSGVHTFPAVLQSSGLYSLSSVVTVPSSSLGTKTYTCNVDHKPSNTKVDKRVESKYGPPCPPCPAPEAAGGPSVFLFPPKPKDTLMISRTPEVTCVVVDVSQEDPEVQFNWYVDGVEVHNAKTKPREEQFNSTYRVVSVLTVLHQDWLNGKEYKCKVSNKGLPSSIEKTISKAKGQPREPQVYTLPPSQEEMTKNQVSLTCLVKGFYPSDIAVEWESNGQPENNYKTTPPVLDSDGSFLLYSKLTVDKSRWQEGNVFSCSVMHEALHNHYTQKSLSLSLGK light 2: QTVVTQEPSLTVSPGGTVTLTCRSSTGAVTTSNYANWVQQKPGQAPRGLIGGTNKRAPGTPARFSGSLLGGKAALTLSGVQPEDEAEYYCALWYSNLWVFGGGTKLTVLGQPKAAPSVTLFPPSSEELQANKATLVCLISDFYPGAVTVAWKADSSPVKAGVETTTPSKQSNNKYAASSYLSLTPEQWKSHRSYSCQVTHEGSTVEKTVAPTECS | binds
